Patent US12624112 (MABWELL SHANGHAI BIOSCIENCE, dated 2026)

Tests used:
[1] = target: T1, ST2 on the effector cells (KU812, KU812/NF-κB-1#, HUVEC, HMC-1) (human, UniProt Q01638 19-556); assay: cell-based or functional assay
T1 sequence (looked up): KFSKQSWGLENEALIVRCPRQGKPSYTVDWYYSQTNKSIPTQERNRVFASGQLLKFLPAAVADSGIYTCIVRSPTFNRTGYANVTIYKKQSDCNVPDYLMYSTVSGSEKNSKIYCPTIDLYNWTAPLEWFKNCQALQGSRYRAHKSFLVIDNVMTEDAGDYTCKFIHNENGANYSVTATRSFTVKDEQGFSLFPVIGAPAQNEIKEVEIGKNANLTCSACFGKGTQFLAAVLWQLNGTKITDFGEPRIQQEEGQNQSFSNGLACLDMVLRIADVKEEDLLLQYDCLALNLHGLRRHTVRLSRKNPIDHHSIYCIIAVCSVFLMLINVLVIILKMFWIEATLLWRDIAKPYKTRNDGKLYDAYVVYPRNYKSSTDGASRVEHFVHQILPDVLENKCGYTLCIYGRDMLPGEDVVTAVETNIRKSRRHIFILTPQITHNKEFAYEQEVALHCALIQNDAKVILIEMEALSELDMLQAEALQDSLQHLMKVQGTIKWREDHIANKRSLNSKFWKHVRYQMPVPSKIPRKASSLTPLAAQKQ

[2] = target: T1, ST2 on the effector cells (KU812, …); assay: cell-based or functional assay; remark: listed apart in the source
[3] = target: T1, ST2 on the effector cells (KU812, …); assay: cell-based or functional assay; remark: listed apart in the source
[4] = target: T1, ST2 on the effector cells (KU812, …); assay: cell-based or functional assay; remark: listed apart in the source
[5] = target: T1, ST2 on the effector cells (KU812, …); assay: cell-based or functional assay; remark: listed apart in the source
[6] = target: T1, ST2 on the effector cells (KU812, …); assay: cell-based or functional assay; remark: listed apart in the source
Human ST2-fc (human) = Human ST2-fc (human) (UniProt Q01638); assay: competition ELISA, coated ST2-fc, competitor IL33-his
Human ST2-his [7] = target: T2, Human ST2-his (human, UniProt Q01638-2 19-328, limits assumed); assay: SPR Biacore X100, ratio of kd at pH 5.5 to kd at pH 7.4
T2 construct: Expressed in CHO-K1; The printed range starts at Met1; also called human ST2 fused with a 6-histidine tag at the C-terminus
T2 sequence: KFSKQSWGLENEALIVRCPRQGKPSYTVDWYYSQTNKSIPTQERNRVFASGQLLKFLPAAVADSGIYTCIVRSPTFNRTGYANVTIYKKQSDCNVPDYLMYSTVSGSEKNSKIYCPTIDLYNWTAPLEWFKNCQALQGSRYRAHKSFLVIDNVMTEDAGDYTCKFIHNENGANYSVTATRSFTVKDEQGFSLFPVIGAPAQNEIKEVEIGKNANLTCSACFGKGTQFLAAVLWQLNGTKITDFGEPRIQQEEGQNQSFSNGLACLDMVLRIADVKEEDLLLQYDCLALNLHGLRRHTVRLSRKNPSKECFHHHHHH
Method: (§1) The experiment on the interaction between the anti-human ST2 antibodies and human ST2-his was performed using Biacore X100.
(§2) Each anti-human ST2 antibody was diluted to 2 µg/mL and captured on the surface of a protein A chip for a capture time of 60 s. Following the antibody capture, a solution of human ST2-his (2-fold gradient dilution from a starting concentration of 20 nM, to obtain 6 concentrations in total) was injected. Association was monitored for 180 s and dissociation was monitored for 700 s, and the sensor surface was regenerated by injecting a solution of glycine at pH 2.0. Kinetic data were analyzed using a simple 1:1 binding model.

Human ST2-his [8] = target: T2, Human ST2-his; assay: SPR Biacore X100, antibody captured on protein A chip, human ST2-his injected, pH 7.4
Method: as §1, §2

Human ST2-his [9] = target: T2, Human ST2-his; assay: SPR Biacore X100, antibody captured on protein A chip, human ST2-his injected, dissociation at pH 5.5
Method: as §1, §2

Row | Binder | IC50, inhibition of KU812-IL5 production promoted by IL-33 (human IL33-his) [1] | Maximum inhibition rate, KU812-IL5 production by IL-33 [1] | Relative activity compared with CNTO7160, KU812-IL5 production by IL-33 [1] | IC50, inhibition of KU812-IL5 production promoted by oxidized IL33 [3] | Maximum inhibition rate, KU812-IL5 production by oxidized IL33 [3] | Relative activity, KU812-IL5 production by oxidized IL33 [3] | IC50, inhibition of KU812-IL5 production promoted by reduced IL33 [4] | Maximum inhibition rate, KU812-IL5 production by reduced IL33 [4] | Relative activity, KU812-IL5 production by reduced IL33 [4] | IC50, inhibition of HUVEC-IL6 production promoted by IL33 [5] | Maximum inhibition rate, HUVEC-IL6 production by IL33 [5] | Relative activity, HUVEC-IL6 production by IL33 [5] | IC50, inhibition of HMC-1 IL8 production promoted by IL33 [6] | Maximum inhibition rate, HMC-1 IL8 production by IL33 [6] | Relative activity, HMC-1 IL8 production by IL33 [6] | IC50 (Human ST2-fc (human)) | Maximum inhibition rate (Human ST2-fc (human)) | Relative activity compared with CNTO7160 (Human ST2-fc (human)) | kd ratio of pH 5.5/pH 7.4 (Human ST2-his [7]) | Kd (Human ST2-his [8]) | further results
1 | 5886-156-H1L0 (antibody, human IgG4 S228P, kappa, V domains shown, Humanized antibody expressed in CHO-K1, purified by protein A) VH: QVQLQESGPGLVKPSQTLSLTCTVSGYSITSDYAWNWIRQPPGKGLEWIGYIDYSGSTTYNPSLKSRVTISRDTSKNQFSLKLSSVTAADTAVYYCASTVIDSMDYWGQGTLVTVSS VL: DIVLTQSPASLAVSPGQRATITCRASKSVSTSGHSYMHWYQQKPGQPPKLLIYLASNLESGVPARFSGSGSGTDFTLTINPVEANDTANYYCQHSREFPFTFGQGTKVEIKR | 0.0354 µg/mL | 98.1% | 181% | 0.0285 µg/mL | 101% | 77.5% | 0.752 µg/mL | 93.4% | 195% | 4.05 µg/mL | 87.9% | 67.3% | 0.177 µg/mL | 81% | 56.9% | 1.22 µg/mL | 89.2% | 103% | 1.03 | 0.275 nM | IC50, inhibition of activation of KU812-NF-κB reporter gene by IL33 [2]: 0.478 µg/mL; Maximum inhibition rate, KU812-NF-κB reporter gene [2]: 92.5%; Relative activity compared with CNTO7160, KU812-NF-κB reporter gene [2]: 41.9%; koff (Human ST2-his [8]): 0.000272 s⁻¹; kon (Human ST2-his [8]): 990000 M⁻¹ s⁻¹; Kd (Human ST2-his [9]): 0.276 nM; koff (Human ST2-his [9]): 0.000279 s⁻¹; kon (Human ST2-his [9]): 1.01e+06 M⁻¹ s⁻¹
2 | 5887-41-H1L0 (antibody, human IgG4 S228P, kappa, V domains shown, Humanized antibody) VH: QVQLQESGPGLVKPSQTLSLTCTVSGYSITSDYAWDWIRQPPGKGLEWIGYIRYSGDTYYNPSLKSRVTISRDTSKNQFSLKLSSVTAADTAVYYCATTMMDTMDYWGQGTLVTVSS VL: DIVLTQSPASLAVSPGQRATITCRASKSVSTSGNSYMHWYQQKPGQPPKLLIYLASNLESGVPARFSGSGSGTDFTLTINPVEANDTANYYCQHSREFPLTFGQGTKLEIKR | 0.0699 µg/mL | 97.3% | 91.7% | 0.0337 µg/mL | 101% | 65.4% | 0.706 µg/mL | 78.6% | 208% | 1.31 µg/mL | 93.2% | 208% | 0.123 µg/mL | 77.8% | 81.6% | 0.58 µg/mL | 92.8% | 216% | 1 | 0.214 nM | IC50, inhibition of activation of KU812-NF-κB reporter gene by IL33 [2]: 0.0554 µg/mL; Maximum inhibition rate, KU812-NF-κB reporter gene [2]: 89.2%; Relative activity compared with CNTO7160, KU812-NF-κB reporter gene [2]: 362%; koff (Human ST2-his [8]): 9.98e-05 s⁻¹; kon (Human ST2-his [8]): 467000 M⁻¹ s⁻¹; Kd (Human ST2-his [9]): 0.161 nM; koff (Human ST2-his [9]): 0.0001 s⁻¹; kon (Human ST2-his [9]): 622000 M⁻¹ s⁻¹
3 | 5888-379-H1L0 (antibody, human IgG4 S228P, kappa, V domains shown, Humanized antibody) VH: QVQLVQSGAEVKKPGASVKVSCKASGYTFINYGMNWVRQAPGQRLEWMGWINTYIGEPTYGDNFKGRVTITRDTSASTAYMELSSLRSEDTAVYYCAREGEGFAYWGQGTLVTVSS VL: DIQMTQSPSSLSASVGDRVTITCKSSQSLLYSGNQNNYLAWYQQKPGKVPKLLIYGASTRESGVPSRFSGSGSGTDFTLTISSLQPEDVATYYCQNDHSYPYTFGGGTKVEIKR | 0.0874 µg/mL | 99.4% | 131% | 0.0161 µg/mL | 101% | 137% | 2.87 µg/mL | 96.7% | 51.1% | 16.1 µg/mL | 83% | 16.9% | 0.334 µg/mL | 85.6% | 30.1% | 0.465 µg/mL | 89.1% | 188% | 7.26 | 0.452 nM | koff (Human ST2-his [8]): 0.000351 s⁻¹; kon (Human ST2-his [8]): 777000 M⁻¹ s⁻¹; Kd (Human ST2-his [9]): 1.43 nM; koff (Human ST2-his [9]): 0.00255 s⁻¹; kon (Human ST2-his [9]): 1.79e+06 M⁻¹ s⁻¹
4 | 5888-379-H2L1 (antibody, human IgG4 S228P, kappa, V domains shown, Humanized antibody) VH: QVQLVQSGAEVKKPGASVKVSCKASGYTFINYGMNWVRQAPGQRLEWMGWINTYIGEPTYGDNFKGRVTITRDTSASTAYMELSSLRSEDTAVYYCAREGDAFAYWGQGTLVTVSS VL: DIQMTQSPSSLSASVGDRVTITCKSSQSLLYSGNQNNYLAWYQQKPGKVPKLLIYGASTRESGVPSRFSGSGSGTDFTLTISSLQPEDLATYYCQNDHSYPYTFGGGTKVEIKR | 0.0839 µg/mL | 98% | 121% | 0.0228 µg/mL | 101% | 96.8% | 2.87 µg/mL | 96.7% | 51.1% | 26.1 µg/mL | 71.6% | 10.4% | 0.23 µg/mL | 90.2% | 43.8% | 0.427 µg/mL | 84.8% | 206% | 11.9 | 0.495 nM | koff (Human ST2-his [8]): 0.000485 s⁻¹; kon (Human ST2-his [8]): 979000 M⁻¹ s⁻¹; Kd (Human ST2-his [9]): 1.67 nM; koff (Human ST2-his [9]): 0.00575 s⁻¹; kon (Human ST2-his [9]): 3.46e+06 M⁻¹ s⁻¹
